How the values were obtained:
κI O18/O8 Y87H (human) [1] = experiment: AUC
κI O18/O8 Y87H (human) [2] = experiment: NMR titration

Substance: κI O18/O8 Y87H (domain or fragment)
- Kd (κI O18/O8 Y87H (human) [1]): 420 µM
- Kd (κI O18/O8 Y87H (human) [2]): 347 µM

Source: article PMC2872106
